# T1: Can1 wild type (UniProt Q53W14 =ME+3-636+=LE, internal_change)
# T1 sequence: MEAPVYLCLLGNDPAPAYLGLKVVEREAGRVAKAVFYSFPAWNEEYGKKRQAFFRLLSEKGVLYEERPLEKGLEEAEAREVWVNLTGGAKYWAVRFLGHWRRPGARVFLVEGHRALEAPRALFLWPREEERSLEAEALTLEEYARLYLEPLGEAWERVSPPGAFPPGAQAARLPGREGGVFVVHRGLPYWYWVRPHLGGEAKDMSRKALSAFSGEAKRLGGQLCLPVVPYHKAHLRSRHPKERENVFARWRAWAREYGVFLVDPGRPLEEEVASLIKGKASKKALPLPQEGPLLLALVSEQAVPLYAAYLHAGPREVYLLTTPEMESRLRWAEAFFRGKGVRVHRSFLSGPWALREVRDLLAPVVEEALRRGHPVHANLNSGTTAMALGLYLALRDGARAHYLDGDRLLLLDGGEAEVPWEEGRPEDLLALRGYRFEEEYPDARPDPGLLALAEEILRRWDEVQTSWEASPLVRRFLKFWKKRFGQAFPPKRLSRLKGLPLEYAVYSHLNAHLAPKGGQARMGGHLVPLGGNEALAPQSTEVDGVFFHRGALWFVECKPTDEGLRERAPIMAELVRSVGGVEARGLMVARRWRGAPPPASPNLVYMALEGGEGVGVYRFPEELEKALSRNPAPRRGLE
# T2: Can1 SeMet (UniProt Q53W14 =ME+3-636+=LE, internal_change)
# T2 sequence: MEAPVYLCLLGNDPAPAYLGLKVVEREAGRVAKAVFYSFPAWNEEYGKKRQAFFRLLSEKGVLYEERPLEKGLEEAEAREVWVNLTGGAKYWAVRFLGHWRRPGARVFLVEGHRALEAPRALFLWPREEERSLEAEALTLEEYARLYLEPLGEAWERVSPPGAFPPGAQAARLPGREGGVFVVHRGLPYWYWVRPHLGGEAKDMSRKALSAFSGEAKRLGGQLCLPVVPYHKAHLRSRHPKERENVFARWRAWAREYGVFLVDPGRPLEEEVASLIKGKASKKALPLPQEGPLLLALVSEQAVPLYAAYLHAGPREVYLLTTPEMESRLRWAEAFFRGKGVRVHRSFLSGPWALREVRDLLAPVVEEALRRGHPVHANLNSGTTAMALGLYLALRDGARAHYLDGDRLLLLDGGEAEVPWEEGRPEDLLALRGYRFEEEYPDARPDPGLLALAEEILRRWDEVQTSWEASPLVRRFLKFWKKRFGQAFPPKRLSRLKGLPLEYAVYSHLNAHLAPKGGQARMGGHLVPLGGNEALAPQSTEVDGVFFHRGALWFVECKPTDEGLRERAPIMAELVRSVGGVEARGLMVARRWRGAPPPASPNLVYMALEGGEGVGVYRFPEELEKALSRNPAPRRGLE
# Assays:
# [1] = molecular target: T1, Can1 wild type; experiment: SAXS; EMSA: 100 nM 32P-cA4, 20 mM MES pH 6.5, 100 mM NaCl, 1 mM EDTA, 5 mM MnCl2, 2 uM BSA, 10 min at room temperature; 15% native acrylamide, 1x TBE; conditions: protein: recombinant; tags: N-terminal His tag removed by TEV; C-terminal Leu-Glu added by cloning; cyclic single strand of 4 nt
# [2] = molecular target: T2, Can1 SeMet; experiment: X-ray crystallography (1.83 A); EMSA: 100 nM 32P-cA4, 20 mM MES pH 6.5, 100 mM NaCl, 1 mM EDTA, 5 mM MnCl2, 2 uM BSA, 10 min at room temperature; 15% native acrylamide, 1x TBE; conditions: protein: recombinant; tags: N-terminal His tag removed by TEV; C-terminal Leu-Glu added by cloning; cyclic single strand of 4 nt
binder,measurement,setting,value
"AAAA (structured_RNA, cyclic oligoribonucleotide, no free ends) [cA4 (cyclic tetra-adenylate), unlabelled]",binding result,[1],binds
same,binding result,[2],binds

# From paper PMC6981274, “Structure and mechanism of a Type III CRISPR defence DNA nuclease activated by cyclic oligoadenylate” (Nature Communications, 2020)
